According to PMC2637605:

Tested on: Foxi1 (FOXI1)
Assay: competition EMSA
Conditions: unlabeled wt competitor; 5 mM HEPES pH 7.9, 100 mM KCl, 26% glycerol, 1.5 mM MgCl2, 0.2 mM EDTA, 0.5 mM DTT, 0.5 mM PMSF, 500 ng poly dI:dC, room temperature 15 min; 6% native gel …; scale: fold molar excess for effective competition

ATP6V0A4 Fk1-3 wt (-561/-547) gave a competitor fold molar excess for effective competition of 10.
